The text below walks through data of patent US20030148463A1 (published 2003).

Ends that are not written are not given here. Pep Spots Membrane = cellulose membrane (Jerini Biotools) to which the peptides are covalently attached at their C-termini as individual spots

For experiment [1], the target named is T1, recombinant soluble human 17-1A-antigen (human, UniProt P16422 24-265).
T1 construct: extracellular domain; also called s17-1A; soluble 17-1A-antigen
T1 sequence (looked up): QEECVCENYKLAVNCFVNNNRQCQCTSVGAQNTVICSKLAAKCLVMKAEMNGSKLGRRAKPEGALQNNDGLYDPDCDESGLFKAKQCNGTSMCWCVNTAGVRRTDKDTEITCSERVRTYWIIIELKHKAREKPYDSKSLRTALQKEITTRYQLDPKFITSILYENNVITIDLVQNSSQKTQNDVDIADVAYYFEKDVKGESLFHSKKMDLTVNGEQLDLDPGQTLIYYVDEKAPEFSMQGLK
The experiment in a line: SPR (BIACORE 2000), s17-1A immobilized on CM5 chip, 1. set. As for the experimental part:
Surface plasmon resonance measurement was performed using the BIACORE 2000 device (Biacore AB, Freiburg, Freiburg, Germany). Immobilization of recombinant soluble 17-1A-antigen in each flow cell and analysis of the interaction was carried out with an automatic method in BIACORE 2000. The antigen was covalently coupled to sensor chip CM5 via primary amine groups. After activation of the carboxylated dextran matrix of CM5 sensor chip with a single injection of 80 μl of 0.1 M N-hydroxisuccinimide/0.4 M N-ethyl-N′-(3-dimethylaminopropyl)-carbodiimide (NHS/EDC9) through all four flow cells, flow cells 1,2,3 and 4 were successively included ito the flow path during injection of s17-1A-antigen (60 μg/ml in 10 mM sodium acetate, pH 4.7). Different contact times of 17-1A to the activated surface lead to approximately 2500 response units (RU9 in flow cell 1, […] in flow cell 2, 780 RU in flow cell 3 and 290 RU in flow cell 4). Excess activated esters were blocked by injection of 85 μl 1 M ethanolamine pH 5 over all four flow cells. Binding experiments were performed at 25° C. in buffer of pH 7.4 containing 10 mM Hepes, 150 mM NaCl, 3 mM EDTA and 0.005% surfactant P20. The binding kinetics of antibodies to immobilized recombinant 17-1A were determined by injecting antibody concentrations ranging from 0.5 to 2 μM. The sensor chip was regenerated between each run with 100 mM Glycin, 500 mM NaCl, 0.005% Tween pH3. The association and dissociation rate constants, Kon and Koff were analysed using BIA-evaluation software from Biacore AB as described (Karlsson, (1991) J Immunol Meth 145: 229-240). Two sets of affinity determinations were carried out (1.set: M79, H79, D7.2, Panorex; 2. set: Panorex, HD70); the murine Panorex was also included in set 2 as internal reference.

Another experiment has as its target T2, 17-1A peptide 8 (human).
T2 construct: also called peptide spot 8
T2 peptide: NYKLAVNCFVNNN-{Pep Spots Membrane}
The experiment in a line: peptide spot membrane, electrotransfer, anti-human secondary antibody, chemoluminescence. From the text:
(§1) Due to a higher degree of crossreactivity of the secondary HRP-conjugated anti-human immunoglobulin antibody with several peptide spots, bound human antibodies H79 and HD70 were transfered from the Pep Spots Membrane to a blotting membrane, respectively, by means of electrotransfer and subsequently detected by said anti human secondary antibody and chemoluminescence. Specific binding of human antibody H79 could be detected mainly at peptide spots 8, 11, 13, 14, 59-60, 77 and 79; however, no binding was detectable in case of human antibody HD70.
(§2) The PepSpots Membrane with the synthesized peptides was shaken for ten minutes in methanol and then washed three times for ten minutes in TBS-buffer pH8. The membrane was then blocked in casein based blocking solution, containing 0.05 g/ml sucrose for one hour and then once shaken in TBS pH8/0.05%Tween 20 (TBS-T).
(§3) Each of the anti-17-1A antibodies was incubated at room temperature together with the membrane for three hours in blocking solution (1 μg antibody/ml). After three washes in TBS-T for ten minutes each, the horse radish peroxidase (HRP)-conjugated secondary antibody (anti mouse/anti human; 1 μg/ml blocking solution) was incubated for two hours at room temperature together with the membrane. Then the membrane was washed for three times in TBS-T for ten minutes each. Detection of bound antibodies was performed directly on the Pep Spots Membrane in case of M79 according to the protocol of the chemoluminescence kit manufacturer (Boehringer). The blot was regenerated after three washes with TBS-T (10 min.) in a solution containing 50 mM Tris-HCl pH 6.7, 100 mM 2-Mercaptoethanol and 2% (w/v) SDS for 30 min at 50° C. and subsequently reused for epitope mapping of the next antibody. Due to the higher degree of unspecific binding of the anti-human immunoglobulin secondary antibody to the polypeptide-spots on the membrane, a fractionated electrotransfer to a second blotting-membrane followed by detection with the anti-human secondary antibody was carried out in case of HD70 and H79 according to Rüdiger, EMBO 16 (1997) 1501-1507. Incubation with the secondary antibody and antibody detection on the blots was performed as described above.

The target of the next experiment is T3, 17-1A peptide 11 (human, cysteine pairing not given here).
T3 construct: also called peptide spot 11
T3 peptide: NCFVNNNRQCQCT-{Pep Spots Membrane}
The description is as above.
Excerpt: as §1, §2, §3

The target of another experiment is T4, 17-1A peptide 13 (human, cysteine pairing not given here).
T4 construct: also called peptide spot 13
T4 peptide: NNNRQCQCTSVGA-{Pep Spots Membrane}
The description is as above.
Excerpt: as §1, §2, §3

For another experiment, the target named is T5, 17-1A peptide 14 (human, cysteine pairing not given here).
T5 construct: also called peptide spot 14
T5 peptide: NRQCQCTSVGAQN-{Pep Spots Membrane}
The experiment is described as above.
Excerpt: as §1, §2, §3

The next experiment has as its target T6, 17-1A peptide 59 (human).
T6 construct: also called peptide spot 59
T6 peptide: ITCSERVRTYWII-{Pep Spots Membrane}
The description is as above.
Excerpt: as §1, §2, §3

A further experiment concerns the target T7, 17-1A peptide 60 (human).
T7 construct: also called peptide spot 60
T7 peptide: CSERVRTYWIIIE-{Pep Spots Membrane}
The description is as above.
Excerpt: as §1, §2, §3

The next experiment deals with T8, 17-1A peptide 79 (human).
T8 construct: also called peptide spot 79
T8 peptide: RYQLDPKFITSIL-{Pep Spots Membrane}
The description is as above.
Excerpt: as §1, §2, §3

The target of experiment [2] is T1, recombinant soluble human 17-1A-antigen. The experiment in a line: ELISA of periplasma Fab preparations on immobilized s17-1A. Here is the method: As previously mentioned in example I, E. coli XL1 Blue transformed with pComb3H containing one light and the Fd-segment of one heavy chain produce soluble Fab in sufficient amounts after excision of the gene III fragment and induction with IPTG. The heavy chain Fd-segment and the light chain are exported into the periplasma where they assemble and form functional Fab-fragments. For better periplasma preparations the cells were grown in SB-medium supplemented with 20 mM MgCl₂ and are redissolved in PBS after harvesting. By four rounds of freezing at −70° C. and thawing at 37° C., the outer membrane of the bacteria was destroyed by temperature shock and the soluble periplasmatic proteins including the Fab fragments were released into the supernatant. After elimination of intact cells and cell-debris by centrifugation, the supernatants containing the Fab-antibody-fragments were collected and used for further examination. […]
Detection of k8-D4.5 and k5.1-D4.5-Fab-fragments bound to immobilized s17-1A anigen was carried out using a polyclonal biotinylated anti-human-kappa light chain antibody (1 μg/ml PBS) detected with horse raddish conjugated Avidine (1 μg/ml PBS). The signal was developed by adding a substrate solution, containing 2,2′Azino-bis(3-Ethylbenz-Thiazoline-6-Sulfonic Acid) and Na-perborate and detected at a wavelength of 405 nm.

In experiment [3] the target is T9, human 17-1A-antigen on cells (Kato gastric cancer cells, 17-1A-transfected CHO cells, colon tissue) (human, UniProt P16422 24-314).
T9 construct: whole, on cells; also called transmembrane 17-1A; CHO/17-1A
T9 sequence (looked up): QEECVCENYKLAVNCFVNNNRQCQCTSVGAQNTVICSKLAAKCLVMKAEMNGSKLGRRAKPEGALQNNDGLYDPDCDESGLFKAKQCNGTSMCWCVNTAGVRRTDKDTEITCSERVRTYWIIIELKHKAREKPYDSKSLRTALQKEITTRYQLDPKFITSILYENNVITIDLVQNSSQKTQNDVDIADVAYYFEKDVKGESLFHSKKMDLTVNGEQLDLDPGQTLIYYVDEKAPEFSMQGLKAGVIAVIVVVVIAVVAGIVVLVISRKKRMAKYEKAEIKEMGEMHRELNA
The experiment in a line: flow cytometry on Kato cells and 17-1A-transfected CHO cells, periplasma preparation. An excerpt: The test for binding of the two 17-1A positive human Fab-fragments (k8-D4.5-Fab and k5.1-D4.5-Fab) on Kato-cells (17-1A expressing gastric cancer cell-line), 17-1A transfected CHO-cells (CHO/17-1A) and non-transfected CHO-cells was again carried out with the periplasma preparations. CHO transfected cell-lines were generated by subcloning of a DNA-fragment encoding the complete amino acid sequence of the 17-1A-antigen also known as GA733-2 (Szala, Proc. Natl. Acad. Sci. U.S.A. 87 (1990), 3542-3546), into the eucaryotic expression vector pEF-DHFR (Mack, , Proc. Natl. Acad. Sci. U.S.A. 92 (1995) 7021-7025) according to standard procedures (Sambrook, Molecular Cloning; A Laboratory Manual, Second Edition, Cold Spring Harbour Laboratory Press, Cold Spring Harbour, N.Y. (1989)). The resulting plasmid was linearized with NdeI and transfected into DHFR-deficient CHO-cells for stable expression. The expression of transmembrane 17-1A was increased by stepwise gene amplification induced by subsequent addition of increasing concentrations of the DHFR-inhibitor Methotrexat (MTX) to a final concentration of 500 nM, with the concentration steps in between being 20 nM and 100 nM (Kaufmann, Methods Enzymol. 185 (1990), 537-566). […] Labeled cells were then analyzed by flow cytometry.

Experiment [4] addresses recombinant soluble human 17-1A-antigen (human) (UniProt P16422). The experiment in a line: SPR (BIACORE 2000), s17-1A immobilized on CM5 chip, 1. set.
Experiment [5] shares this target. The experiment in a line: SPR (BIACORE 2000), s17-1A immobilized on CM5 chip, 2. set (internal reference).

B1: H79-huIgG1 (VD4.5huIgG1-k8) (antibody, V domains shown)
VH: EVQLLESGGGVVQPGRSLRLSCAASGFTFSSYGMHWVRQAPGKGLEWVAVISYDGSNKYYADSVKGRFTISRDNSKNTLYLQMNSLRAEDTAVYYCAKDMGWGSGWRPYYYYGMDVWGQGTTVTVSS
VL: ELQMTQSPSSLSASVGDRVTITCRTSQSISSYLNWYQQKPGQPPKLLIYWASTRESGVPDRFSGSGSGTDFTLTISSLQPEDSATYYCQQSYDIPYTFGQGTKLEIK
notes: Complete antibody produced in CHO cells; also called H79 human IgG1; human H79
Consider B1, for which the Kd in experiment [1] was 340 nM. Also, the koff in [1] stood at 0.0072 s⁻¹. In addition, in experiment [1], the kon stood at 21000 M⁻¹ s⁻¹. In addition, the binding result with 17-1A peptide 8, with 17-1A peptide 11, with 17-1A peptide 13, with 17-1A peptide 14, with 17-1A peptide 59 and with 17-1A peptide 60 was “binds” each time. Moreover, in the experiment with 17-1A peptide 79, the binding result is given as “binds”.

B2: k5.1-D4.5-Fab (Fab, V domains shown)
VH: B1 VH
VL: ELQMTQSPSSLSASVGDRVTITCRASQSISSYLNWYQQKPGQPPKLLIYWASTRESGVPDRFSGSESGTNYTLTISSLQPEDFATYFCQQSDSLPITFGQGTRLDIQ
notes: Soluble Fab tested as an E. coli periplasma preparation
In the case of B2, the binding result in experiment [2] and in [3] was “binds” in each case.

B3: Panorex (antibody, INN chains, looked up, V domains shown)
VH: QVQLQQSGAELVRPGTSVKVSCKASGYAFTNYLIEWVKQRPGQGLEWIGVINPGSGGTNYNEKFKGKATLTADKSSSTAYMQLSSLTSDDSAVYFCARDGPWFAYWGQGTLVTVSA
VL: NIVMTQSPKSMSMSVGERVTLTCKASENVVTYVSWYQQKPEQSPKLLIYGASNRYTGVPDRFTGSGSATDFTLTISSVQAEDLADYHCGQGYSYPYTFGGGTKLEIK
Consider B3, for which, in [4], the Kd amounted to 200 nM, the koff came to 0.022 s⁻¹ and the association rate constant (kon) is 110000 M⁻¹ s⁻¹. In [5], the Kd turned out to be 270 nM, the off-rate constant (koff) was 0.027 s⁻¹ and the kon is 100000 M⁻¹ s⁻¹.
